Measured values published in article PMC9050506 (RSC Advances, 2020).

Key:
[1] = tested on: dimannosylated peptide P2 (DM); type: binding
[2] = binding partner not given; cited from earlier work

In the case of “CVN2L0-V2: CVN2L0 variant with one C58E–C73R substitution, three disulfide bonds”, the “Rmax, binding to DM” value ([1]; SPR sensorgrams Fig. 3E-F) is reported as 132 RU.

B1: wild-type CV-N: 11 kDa lectin originating from Nostoc ellipsosporum (protein, UniProt P81180 1-101, looked up)
Cyanovirin-N: LGKFSQTCYNSAIQGSVLTSTCERTNGGYNTSSIDLNSVIENVDGSLKWQPSNFIETCRNTQLAGSSELAAECKTRAQQFVSTKINLDDHIANIDGTLKYE
In the case of B1, the Kd [2] is listed as 5.7 nM.

B2: CVN2L0-V4: CVN2L0 variant with Cys–Cys mutagenesis to Trp–Met and Glu–Arg, two disulfide bonds (protein)
chain: LGKFSQTCYNSAIQGSVLTSTCERTNGGYNTSSIDLNSVIENVDGSLKWQPSNFIETWRNTQLAGSSELAAEMKTRAQQFVSTKINLDDHIANIDGTLKYELGKFSQTCYNSAIQGSVLTSTCERTNGGYNTSSIDLNSVIENVDGSLKWQPSNFIETERNTQLAGSSELAAERKTRAQQFVSTKINLDDHIANIDGTLKYE
modifications: left off: His6, N-terminal, state not stated
For B2, the “binding to DM (in words)” value ([1]; SPR, listed as V4) was “showed binding”.
